US11814435B2, “Therapeutic antibodies and their uses” (PFIZER INC., priority 2015, dated 2023)
Positions count from the first letter of the chain named.

T1: hBCMA (human BCMA) (Homo sapiens, UniProt Q02223)
T1 sequence (Q02223 1-184): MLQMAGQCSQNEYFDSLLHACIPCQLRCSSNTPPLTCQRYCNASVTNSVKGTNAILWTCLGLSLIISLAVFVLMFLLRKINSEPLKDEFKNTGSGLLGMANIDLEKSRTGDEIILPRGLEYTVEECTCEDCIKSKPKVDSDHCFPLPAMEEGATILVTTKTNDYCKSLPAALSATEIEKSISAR

B1: L3.PY/L1.PH/H2.QR: anti-BCMA antibody (antibody, V domains shown)
VH: EVQLLESGGGLVQPGGSLRLSCAASGFTFGSYAMTWVRQAPGKGLEWVSAISGSGGNTFYADQRKGRFTISRDNSKNTLYLQMNSLRAEDTAVYYCARVSPIASGMDYWGQGTLVTVSS
VL: EIVLTQSPGTLSLSPGERATLSCRASQSVSPHYLAWYQQKPGQAPRLLIYGASSRATGIPDRFSGSGSGTDFTLTISRLEPEDFAVYYCQHYPYPPSFTFGQGTKVEIK
B2: L3.PY/L3.KF/H2.LT: anti-BCMA antibody (antibody, V domains shown)
VH: B1 VH with G53L, S54T, Q63S, R64V
VL: B1 VL with P31S, H32S, Q90K, H91F
B3: L3.PY/L3.KY/H2.HA: anti-BCMA antibody (antibody, V domains shown)
VH: B1 VH with G53H, S54A, Q63S, R64V
VL: B1 VL with P31S, H32S, Q90K, H91Y
B4: L3.PY/L3.KF/H2.QL: anti-BCMA antibody (antibody, V domains shown)
VH: B1 VH with R64L
VL: B1 VL with P31S, H32S, Q90K, H91F
B5: L3.PY/L3.KY/H2.YQ: anti-BCMA antibody (antibody, V domains shown)
VH: B1 VH with G53Y, S54Q, Q63S, R64V
VL: B1 VL with P31S, H32S, Q90K, H91Y
B6: L3.PY/L3.KY/H3.YA: anti-BCMA antibody (antibody, V domains shown)
VH: B1 VH with Q63S, R64V, A103Y, S104A
VL: B1 VL with P31S, H32S, Q90K, H91Y
B7: L3.PY/L3.KF/H2.YQ: anti-BCMA antibody (antibody, V domains shown)
VH: B1 VH with G53Y, S54Q, Q63S, R64V
VL: B1 VL with P31S, H32S, Q90K, H91F
B8: L3.PY/L1.PH/H3.AE: anti-BCMA antibody (antibody, V domains shown)
VH: B1 VH with Q63S, R64V, S104A, G105E
VL: B1 VL
B9: L3.PY/L3.KY/H3.TAQ: anti-BCMA antibody (antibody, V domains shown)
VH: B1 VH with Q63S, R64V, A97T, S104A, G105Q
VL: B1 VL with P31S, H32S, Q90K, H91Y
B10: L3.PY/L3.KF/H2.DY: anti-BCMA antibody (antibody, V domains shown)
VH: B1 VH with S52D, G53Y, Q63S, R64V
VL: B1 VL with P31S, H32S, Q90K, H91F
B11: L3.PY/L3.KY/H2.QL: anti-BCMA antibody (antibody, V domains shown)
VH: B1 VH with R64L
VL: B1 VL with P31S, H32S, Q90K, H91Y
B12: L3.PY/L1.PH/H3.TAQ: anti-BCMA antibody (antibody, V domains shown)
VH: B1 VH with Q63S, R64V, A97T, S104A, G105Q
VL: B1 VL
B13: L3.PY/L3.KY/H2.DY: anti-BCMA antibody (antibody, V domains shown)
VH: B1 VH with S52D, G53Y, Q63S, R64V
VL: B1 VL with P31S, H32S, Q90K, H91Y
B14: L3.PY/L1.PH/H2.HA: anti-BCMA antibody (antibody, V domains shown)
VH: B1 VH with G53H, S54A, Q63S, R64V
VL: B1 VL
B15: L3.PY/L3.KY/H2.LT: anti-BCMA antibody (antibody, V domains shown)
VH: B1 VH with G53L, S54T, Q63S, R64V
VL: B1 VL with P31S, H32S, Q90K, H91Y
B16: L3.PY/L3.KY/H2.QR: anti-BCMA antibody (antibody, V domains shown)
VH: B1 VH
VL: B1 VL with P31S, H32S, Q90K, H91Y
B17: A02_Rd4_6 nM_C26: anti-BCMA antibody (antibody, V domains shown)
VH: EVQLLESGGGLVQPGGSLRLSCAASGFTFSSYAMNWVRQAPGKGLEWVSAISDSGGSTYYADSVKGRFTISRDNSKNTLYLQMNSLRAEDTAVYYCARYWPMSLWGQGTLVTVSS
VL: EIVLTQSPGTLSLSPGERATLSCRASQSVSSLYLAWYQQKPGQAPRLLMYDASIRATGIPDRFSGSGSGTDFTLTISRLEPEDFAVYYCQQYQVWPLTFGQGTKVEIK
B18: A02_Rd4_0.6 nM_C03: anti-BCMA antibody (antibody, V domains shown)
VH: B17 VH with T58K, Y59W
VL: B17 VL with L32S, Q93F, V94T
B19: A02_Rd4_6 nM_C25: anti-BCMA antibody (antibody, V domains shown)
VH: B17 VH with T58R, Y59W, S103T, L104P
VL: B17 VL with L32S, Q93L, V94D
B20: A02_Rd4_6 nM_C19: anti-BCMA antibody (antibody, V domains shown)
VH: B17 VH with T58R, Y59W, L104D
VL: B17 VL with S31V, Q93L, V94A
B21: A02_Rd4_6 nM_C22: anti-BCMA antibody (antibody, V domains shown)
VH: B17 VH with I51V, S52L, S103T, L104P
VL: B17 VL with L32S
B22: A02_Rd4_6 nM_C07: anti-BCMA antibody (antibody, V domains shown)
VH: B17 VH with S52G, D53G, T58L, Y59P, S103D, L104S
VL: B17 VL with S31P, L32Y, Q93E, V94R

target: T1, hBCMA (human BCMA); assay: Kinetics and affinity of hBCMA/human IgG interactions by SPR (Bio-Rad Proteon XPR36); assay type: binding; details: huBCMA, 37° C.
Procedure, shortened: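 First, antibodies are immobilized by amine coupling onto a GLC sensor chip at 25° C. Next, hBCMA is titrated from 0.08 to 50 nM in one cycle, each injection lasting two minutes, in BSA-supplemented HBS-T+ at 37° C. or 25° C. Finally, dissociation runs two hours before kinetic-titration fitting.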

In order of rising “ka (1/Ms) huBCMA @ 37° C.” value:
1. B7  1.96e+06 M⁻¹ s⁻¹
2. B4  2.07e+06 M⁻¹ s⁻¹
3. B5  2.14e+06 M⁻¹ s⁻¹
4. B14  2.37e+06 M⁻¹ s⁻¹
5. B10  2.74e+06 M⁻¹ s⁻¹
6. B2  2.75e+06 M⁻¹ s⁻¹
7. B9  2.79e+06 M⁻¹ s⁻¹
8. B15  2.92e+06 M⁻¹ s⁻¹
9. B16  2.95e+06 M⁻¹ s⁻¹
10. B13  3.19e+06 M⁻¹ s⁻¹
11. B3  3.29e+06 M⁻¹ s⁻¹
12. B6  3.3e+06 M⁻¹ s⁻¹
13. B12  3.58e+06 M⁻¹ s⁻¹
14. B11  3.65e+06 M⁻¹ s⁻¹
15. B8  3.68e+06 M⁻¹ s⁻¹
16. B1  3.69e+06 M⁻¹ s⁻¹

In order of rising “kd (1/s) huBCMA @37° C.” value:
1. B13  0.000642 s⁻¹
2. B9  0.000649 s⁻¹
3. B15  0.000906 s⁻¹
4. B6  0.000912 s⁻¹
5. B16  0.00099 s⁻¹
6. B14  0.00116 s⁻¹
7. B4  0.00125 s⁻¹
8. B8  0.00134 s⁻¹
9. B3  0.00163 s⁻¹
10. B5  0.00165 s⁻¹
11. B10  0.00182 s⁻¹
12. B2  0.00191 s⁻¹
13. B11  0.00208 s⁻¹
14. B12  0.00213 s⁻¹
15. B7  0.00223 s⁻¹
16. B1  0.00236 s⁻¹

same assay, conditions: human BCMA, 37° C.

In order of rising “ka Human” value:
1. B22  1.48e+06 M⁻¹ s⁻¹
2. B19  2.75e+06 M⁻¹ s⁻¹
3. B20  3e+06 M⁻¹ s⁻¹
4. B21  3.38e+06 M⁻¹ s⁻¹
5. B17  4.26e+06 M⁻¹ s⁻¹
6. B18  4.27e+06 M⁻¹ s⁻¹

In order of falling “kd Human” value:
1. B22  0.000189 s⁻¹
2. B18  0.000182 s⁻¹
3. B21  0.000182 s⁻¹
4. B19  0.00018 s⁻¹
5. B20  0.000148 s⁻¹
6. B17  0.000139 s⁻¹

B20 was tested, and the Kd was 49 pM.

test system: cyBCMA; assay: Kinetics and affinity of cyBCMA/human IgG interactions by SPR (Bio-Rad Proteon XPR36); assay type: binding, cynomolgus; details: 37° C.

In order of rising “ka (1/Ms) cyBCMA @ 37° C.” value:
1. B5  1.27e+06 M⁻¹ s⁻¹
2. B7  1.41e+06 M⁻¹ s⁻¹
3. B4  1.42e+06 M⁻¹ s⁻¹
4. B14  1.61e+06 M⁻¹ s⁻¹
5. B9  1.81e+06 M⁻¹ s⁻¹
6. B15  1.82e+06 M⁻¹ s⁻¹
7. B6  1.84e+06 M⁻¹ s⁻¹
8. B2  1.91e+06 M⁻¹ s⁻¹
9. B13  1.96e+06 M⁻¹ s⁻¹
10. B16  2.05e+06 M⁻¹ s⁻¹
11. B10  2.08e+06 M⁻¹ s⁻¹
12. B3  2.28e+06 M⁻¹ s⁻¹
13. B1  2.42e+06 M⁻¹ s⁻¹
14. B12  2.51e+06 M⁻¹ s⁻¹
15. B8  2.61e+06 M⁻¹ s⁻¹
16. B11  2.75e+06 M⁻¹ s⁻¹

In order of falling “kd (1/s) cyBCMA @37° C.” value:
1. B16  0.00774 s⁻¹
2. B14  0.00553 s⁻¹
3. B7  0.00501 s⁻¹
4. B1  0.00436 s⁻¹
5. B6  0.00428 s⁻¹
6. B2  0.00413 s⁻¹
7. B11  0.00409 s⁻¹
8. B10  0.00368 s⁻¹
9. B12  0.0032 s⁻¹
10. B3  0.00318 s⁻¹
11. B4  0.0031 s⁻¹
12. B5  0.00258 s⁻¹
13. B13  0.00243 s⁻¹
14. B15  0.00232 s⁻¹
15. B8  0.00202 s⁻¹
16. B9  0.00192 s⁻¹

test system: Cyno BCMA; assay: Kinetics and affinity of cyno BCMA/human IgG interactions by SPR (Bio-Rad Proteon XPR36); assay type: binding, cynomolgus; details: 37° C.

In order of rising “ka Cyno” value:
1. B22  691000 M⁻¹ s⁻¹
2. B19  1.5e+06 M⁻¹ s⁻¹
3. B21  1.84e+06 M⁻¹ s⁻¹
4. B18  2.12e+06 M⁻¹ s⁻¹
5. B17  2.21e+06 M⁻¹ s⁻¹
6. B20  2.54e+06 M⁻¹ s⁻¹

In order of falling “kd Cyno” value:
1. B22  0.000786 s⁻¹
2. B20  0.000661 s⁻¹
3. B17  0.000448 s⁻¹
4. B18  0.000426 s⁻¹
5. B19  0.00033 s⁻¹
6. B21  0.000324 s⁻¹

With B20 the Kd was 260 pM.
